Target: TNFRSF9 (CD137) (human)
Assay: ELISA

Sequence of TNFRSF9 (CD137) (human) (chain, as listed by the source): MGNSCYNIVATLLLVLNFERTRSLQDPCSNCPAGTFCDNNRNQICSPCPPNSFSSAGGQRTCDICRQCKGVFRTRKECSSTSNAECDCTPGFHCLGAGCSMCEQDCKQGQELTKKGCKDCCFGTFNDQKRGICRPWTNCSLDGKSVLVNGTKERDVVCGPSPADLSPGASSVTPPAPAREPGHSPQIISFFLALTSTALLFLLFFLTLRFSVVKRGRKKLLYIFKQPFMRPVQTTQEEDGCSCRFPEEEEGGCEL

| Binder | EC50 |
| --- | --- |
| 4C2-Candi2 (antibody, V domains shown) VH: EVQLEESGGGLVQPGMSLRLSCTVSGFSLGTFPIGWVRQAPGKGLEWVGIFNTDGSAAYAASVKGRFNVSKNSTKNTVYLHMNSLKTEDTAVYFCARINADYSGWYFGIWGQGTLVTVSS VL: AQQMTQSPSSLSVSVGGRVTITCQASQSIYSYLAWYQQKPGKAPKLLIYEASKTPSGVPSRFNGNGSGTEYTLTISSLQPEDSATYYCQKGYSVSNVAFGGGTEVEIK | 2.38 ng/mL |
| 4C2-Candi3 (antibody, V domains shown) VH: EVQLEESGGGLVQPGGSLALSCTVSGFSLGTFPIGWVRQAPGKGLEWVGIFNTDGSAAYAASVKGRFTVSRDSSKNTVYLHMNSLKTEDTAVYFCARINADYSGWYFGIWGQGTLVTVSS VL: DIQMTQSPSSLSASVGGRVTITCQASQSIYSYLAWYQQKPGKAPKLLIYEASKTPSGVPSRFNGNGSGTDFTLTISSLQPEDSATYYCQKGYSVSNVAFGGGTEVEIK | 100 ng/mL |

Other lines, results leading:

| EC50 | Binder |
| --- | --- |
| 2.46 ng/mL | 4C2-Candi4 (antibody, V domains shown) VH: EVQLEESGGGVVQPGGSLKLSCTVSGFSLGTFPIGWVRQAPGKGLEWVGIFNTDGSAAYAASVKGRFTVSKNSTKNTVYLHMNSLKTEDTAVYFCARINADYSGWYFGIWGQGTLVTVSS VL: DIQMTQSPSSLSVSVGGRVTITCQASQSIYSYLAWYQQKPGKAPKLLIYEASKTPSGVPSRFNGNGSGTEYTLTISSLQPEDSATYYCQKGYSVSNVAFGGGTEVEIK |
| 3.8 ng/mL | 4C2-WTH (antibody, V domains shown) VH: QSVEESGGRLVTPGTPLTLTCTVSGFSLGTFPIGWVRQAPGSGLEWIGIFNTDGSAAYASWARGRFTVFKNSTTVDLKMTSPTTEDTATYFCARINADYSGWYFGIWGPGTLVTVSS VL: EMTQTPASVEVAVGGTVTIKCQASQSIYSYLAWYQQKPGQPPKPLIYEASKTPSGVPSRFKGSGSGTEYTLTISGVQCEDAATYYCQKGYSVSNVAFGGGTEVVVK |

— patent publication US20260351346 (published 2026)
